Data reported in publication PMC7615972, “Cachd1 interacts with Wnt receptors and regulates neuronal asymmetry in the zebrafish brain” (Science (New York, N.Y.), 2024).
Blank lines part the entries; values can stand above or below the binder they belong to.

Molecular target: T1, purified mouse CACHD1 extracellular domain (CACHD1ECD) (mouse, UniProt Q6PDJ1 50-1109)
T1 construct: CACHD1, mouse, extracellular domain; Construct limits and tags are in the supplementary methods; also called mouse CACHD1ECD; source: purified recombinant
T1 sequence (looked up): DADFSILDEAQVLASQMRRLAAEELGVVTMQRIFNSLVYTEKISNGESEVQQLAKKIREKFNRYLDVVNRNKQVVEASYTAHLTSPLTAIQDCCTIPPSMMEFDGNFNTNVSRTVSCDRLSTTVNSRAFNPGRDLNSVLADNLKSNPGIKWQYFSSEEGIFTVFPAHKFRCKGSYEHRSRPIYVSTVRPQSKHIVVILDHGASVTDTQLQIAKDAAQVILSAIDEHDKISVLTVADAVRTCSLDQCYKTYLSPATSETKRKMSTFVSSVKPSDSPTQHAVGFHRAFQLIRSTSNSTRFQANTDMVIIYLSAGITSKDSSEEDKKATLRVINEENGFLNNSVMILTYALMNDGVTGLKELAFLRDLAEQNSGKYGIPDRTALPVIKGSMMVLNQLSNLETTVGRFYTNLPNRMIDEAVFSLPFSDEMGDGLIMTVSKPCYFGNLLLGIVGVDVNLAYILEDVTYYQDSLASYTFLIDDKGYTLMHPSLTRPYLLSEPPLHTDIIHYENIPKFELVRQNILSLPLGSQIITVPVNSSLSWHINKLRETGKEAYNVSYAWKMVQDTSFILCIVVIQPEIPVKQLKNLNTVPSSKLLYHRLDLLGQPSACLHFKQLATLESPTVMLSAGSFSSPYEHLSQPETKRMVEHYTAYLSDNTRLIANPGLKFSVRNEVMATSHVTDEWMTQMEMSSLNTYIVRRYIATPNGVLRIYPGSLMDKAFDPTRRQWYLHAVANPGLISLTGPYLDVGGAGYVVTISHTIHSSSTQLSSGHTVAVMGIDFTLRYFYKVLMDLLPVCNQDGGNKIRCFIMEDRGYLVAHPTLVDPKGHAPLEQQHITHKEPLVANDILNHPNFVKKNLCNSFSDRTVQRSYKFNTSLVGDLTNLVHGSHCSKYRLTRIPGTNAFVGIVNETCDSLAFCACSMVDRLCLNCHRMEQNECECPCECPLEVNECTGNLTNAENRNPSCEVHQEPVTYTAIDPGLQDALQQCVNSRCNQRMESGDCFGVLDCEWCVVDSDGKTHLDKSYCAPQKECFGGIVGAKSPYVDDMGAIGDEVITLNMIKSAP
Test: SPR; mouse CACHD1ECD as analyte; FZD CRDs or LRP6 fragments immobilised; equilibrium dissociation constants
Settings: both partners purified

Kd: 480 ± 40 nM
B1: mouse FZD5 cysteine-rich domain (FZD5CRD) (domain or fragment)
chain: ASKAPVCQEITVPMCRGIGYNLTHMPNQFNHDTQDEAGLEVHQFWPLVEIHCSPDLRFFLCSMYTPICLPDYHKPLPPCRSVCERAKAGCSPLMRQYGFAWPERMSCDRLPVLGGDAEVLCMDYNRSEAT
notes: Frizzled-5, mouse, cysteine-rich domain (CRD); source: purified recombinant

Kd: 170 ± 10 nM
B2: human LRP6 membrane proximal fragment (LRP6_(P3E3P4E4)) (domain or fragment)
chain: VPEAFLLFSRRADIRRISLETNNNNVAIPLTGVKEASALDFDVTDNRIYWTDISLKTISRAFMNGSALEHVVEFGLDYPEGMAVDWLGKNLYWADTGTNRIEVSKLDGQHRQVLVWKDLDSPRALALDPAEGFMYWTEWGGKPKIDRAAMDGSERTTLVPNVGRANGLTIDYAKRRLYWTDLDTNLIESSNMLGLNREVIADDLPHPFGLTQYQDYIYWTDWSRRSIERANKTSGQNRTIIQGHLDYVMDILVFHSSRQSGWNECASSNGHCSHLCLAVPVGGFVCGCPAHYSLNADNRTCSAPTTFLLFSQKSAINRMVIDEQQSPDIILPIHSLRNVRAIDYDPLDKQLYWIDSRQNMIRKAQEDGSQGFTVVVSSVPSQNLEIQPYDLSIDIYSRYIYWTCEATNVINVTRLDGRSVGVVLKGEQDRPRAVVVNPEKGYMYFTNLQERSPKIERAALDGTEREVLFFSGLSKPIALALDSRLGKLFWADSDLRRIESSDLSGANRIVLEDSNILQPVGLTVFENWLYWIDKQQQMIEKIDMTGREGRTKVQARIAQLSDIHAVKELNLQEYRQHPCAQDNGGCSHICLVKGDGTTRCSCPMHLVLLQDELSCG
notes: LRP6, human, membrane proximal fragment P3E3P4E4; also called 3-4
